# System: Escherichia coli TOP10
# Assay: shrunken log2 fold change of peptide-encoding DNA abundance (4.5 h post-induction vs induction); higher = less antimicrobial activity (less host growth inhibition)
# Settings: time post-induction: 4.5 h; library: site-saturation at positions 5, 18, 19, 20
# 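Further: peptides expressed intracellularly from a pBAD plasmid library in pooled LB shake-flask culture, induced with 0.3% L-arabinose, DNA abundance read by NGS, three biological replicates, DESeq2 with apeglm shrinkage.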
row,Sequence,shrunken log2 fold change
1,RRIRMRPPRLPRPRPRPDSYPRP,0.0873
2,RRIRIRPPRLPRPRPRPCPYPRP,-0.269
3,RRIRRRPPRLPRPRPRPCRGPRP,0.17
4,RRIRKRPPRLPRPRPRPRSLPRP,-0.00364
5,RRIRMRPPRLPRPRPRPARTPRP,1.53
6,RRIRWRPPRLPRPRPRPAEDPRP,0.711
7,RRIRLRPPRLPRPRPRPWYEPRP,0.0242
8,RRIRPRPPRLPRPRPRPPMNPRP,-0.036
9,RRIRDRPPRLPRPRPRPMSAPRP,-0.177
10,RRIRMRPPRLPRPRPRPYRFPRP,-0.118
11,RRIRRRPPRLPRPRPRPPMVPRP,0.285
12,RRIRARPPRLPRPRPRPFHPPRP,-0.178
13,RRIRSRPPRLPRPRPRPGHSPRP,0.0297
14,RRIRHRPPRLPRPRPRPAHSPRP,0.0457
15,RRIRRRPPRLPRPRPRPVDPPRP,0.253
16,RRIRHRPPRLPRPRPRPIAVPRP,-0.219
17,RRIRVRPPRLPRPRPRPFPEPRP,-0.24
18,RRIRSRPPRLPRPRPRPIGNPRP,-0.234
19,RRIRGRPPRLPRPRPRPGNPPRP,0.134
20,RRIRARPPRLPRPRPRPICSPRP,0.251
21,RRIRDRPPRLPRPRPRPHRSPRP,-0.015
22,RRIRHRPPRLPRPRPRPSSDPRP,-0.529
23,RRIRIRPPRLPRPRPRPYEMPRP,-0.00062
24,RRIRCRPPRLPRPRPRPELHPRP,0.0685
25,RRIRTRPPRLPRPRPRPICLPRP,-0.14

row,Sequence,shrunken log2 fold change
1,RRIRKRPPRLPRPRPRPKINPRP,-0.116
2,RRIRKRPPRLPRPRPRPSCYPRP,-0.0656
3,RRIRTRPPRLPRPRPRPWMFPRP,-0.355
4,RRIRDRPPRLPRPRPRPPGMPRP,0.201
5,RRIRLRPPRLPRPRPRPHHHPRP,-0.6
6,RRIRWRPPRLPRPRPRPLKRPRP,0.612
7,RRIRDRPPRLPRPRPRPAKCPRP,0.124
8,RRIRERPPRLPRPRPRPDQEPRP,-0.0156
9,RRIRKRPPRLPRPRPRPYKVPRP,-0.558
10,RRIRHRPPRLPRPRPRPLRSPRP,0.549
11,RRIRERPPRLPRPRPRPYETPRP,0.0614
12,RRIRMRPPRLPRPRPRPLQVPRP,0.21
13,RRIRIRPPRLPRPRPRPFGGPRP,-0.103
14,RRIRERPPRLPRPRPRPKPHPRP,0.000708
15,RRIRRRPPRLPRPRPRPCDDPRP,-0.0703
16,RRIRSRPPRLPRPRPRPAFCPRP,0.259
17,RRIRWRPPRLPRPRPRPLNCPRP,-0.0452
18,RRIRHRPPRLPRPRPRPWHCPRP,0.162
19,RRIRERPPRLPRPRPRPRYMPRP,-0.785
20,RRIRSRPPRLPRPRPRPTMPPRP,0.0349
21,RRIRMRPPRLPRPRPRPWIAPRP,-0.00608
22,RRIRDRPPRLPRPRPRPVIAPRP,0.224
23,RRIRVRPPRLPRPRPRPLILPRP,-0.409
24,RRIRPRPPRLPRPRPRPWPMPRP,-0.151
25,RRIRPRPPRLPRPRPRPPGVPRP,0.517

row,Sequence,shrunken log2 fold change
1,RRIRIRPPRLPRPRPRPIKSPRP,-0.462
2,RRIRCRPPRLPRPRPRPHWSPRP,-0.395
3,RRIRCRPPRLPRPRPRPDRAPRP,0.0901
4,RRIRIRPPRLPRPRPRPPDKPRP,-0.0243
5,RRIRQRPPRLPRPRPRPNFLPRP,-0.492
6,RRIRWRPPRLPRPRPRPFIGPRP,-0.38
7,RRIRDRPPRLPRPRPRPAKHPRP,0.0985
8,RRIRIRPPRLPRPRPRPTFNPRP,-0.595
9,RRIRCRPPRLPRPRPRPECFPRP,0.165
10,RRIRWRPPRLPRPRPRPGEDPRP,0.381
11,RRIRRRPPRLPRPRPRPKNIPRP,-0.136
12,RRIRSRPPRLPRPRPRPDYGPRP,-0.0953
13,RRIRQRPPRLPRPRPRPWDFPRP,0.2
14,RRIRQRPPRLPRPRPRPLEPPRP,-0.227
15,RRIRWRPPRLPRPRPRPHYCPRP,-0.269
16,RRIRTRPPRLPRPRPRPRKIPRP,-0.0707
17,RRIRIRPPRLPRPRPRPHIGPRP,-0.17
18,RRIRWRPPRLPRPRPRPMVMPRP,-0.0614
19,RRIRPRPPRLPRPRPRPQLSPRP,-0.485
20,RRIRERPPRLPRPRPRPYAEPRP,-0.447
21,RRIRCRPPRLPRPRPRPDCCPRP,-0.206
22,RRIRYRPPRLPRPRPRPIMGPRP,-0.0134
23,RRIRPRPPRLPRPRPRPERAPRP,1.17
24,RRIRCRPPRLPRPRPRPTSRPRP,-0.0338
25,RRIRWRPPRLPRPRPRPSYYPRP,-0.292
